Measurements reported in US11160869B2 (priority 2019, dated 2021).

Experiments:
plasma cytokines = experiment: MSD V-plex Proinflammatory Panel 1 plasma cytokines, oxazolone colitis (Example 14); format: in vivo, mice; details: 8.45 mg/kg
Excerpt: Plasma cytokines were quantified using the V-plex Proinflammatory Panel 1 Mouse Kit. Plasma IL-1Ra was quantitated by sandwich immunoassay using an antibody pair from the Mouse IL-1Ra/IL-1F3 DuoSet ELISA (R&D Systems #DY480), Streptavidin SULFO-TAG Labeled (MSD #R32AD-1), Multi-Array 96 Plate Pack, SECTOR Plate MSD #L15XA-3 and Read Buffer T (4×) (MSD #R92TC-2). Samples were read on the QuickPlex SQ 120 plate reader (Meso Scale Discovery, Rockville, Md.).

[1] = test system: colonic marker expression; experiment: Colonic sigmoidoscopy spray in NHP: pro-/anti-inflammatory and tissue repair markers; format: in vivo, Macaca fascicularis; details: 1, 3, 10 mg
Protocol: To assess the effect of an IL-10 delivery construct on pro-inflammatory and anti-inflammatory markers the IL-10 delivery construct was delivered to male Macaca fascicularis monkeys (about 5 to about 8 kg) by colonic sigmoidoscopy with a spray nozzle. The IL-10 delivery construct was administered at doses of 1 mg, 3 mg, and 10 mg formulated in albumin.

[2] = test system: CD3+ cells and F4/80 macrophages; experiment: Cellular target in lamina propria after oral gavage (CD3, F4/80, pSTAT3); format: in vivo, mouse; details: 40 min after oral gavage
[3] = test system: chemokines, growth factors, cytokines; experiment: Luminex 38-plex circulating cytokines, oxazolone colitis (Example 14); format: in vivo, mice
Protocol: Each sample was measured in duplicate.

[4] = Oral gavage 10 mg/kg in non-inflamed mice: hIL-10 in serum and tissue, serum IL-1Ra; format: in vivo
[5] = Liquid formulation screens: freeze/thaw, shear stress, short-term stability; format: physicochemical; details: 20 mg/mL, formulations of TABLE 11
Protocol: Formulation development to establish the lyophilization buffer was performed by initially screening the freeze-thaw and shear-induced liquid stability of the target construct following dialysis into combinations of several components outlined below:
Using these two formulations, in order to ensure that the UF/DF step would function as intended and that freezing at the beginning of the lyophilization process would be acceptable, a final liquid formulation freeze/thaw screen and short-term stability study was conducted at higher protein concentrations as outlined in TABLE 11 below.
This formulation was recommended to proceed as the buffer to be used in the UF/DF formulation step prior to lyophilization.

[6] = Phase 1a single ascending dose in healthy male volunteers; format: in vivo, human
Protocol: In part B of the study, early data was gathered on the safety and tolerability, pharmacokinetics, pharmacodynamics and early clinical response following multiple ascending doses of the IL-10 delivery construct in Ulcerative Colitis (UC) patients (Part B).
Part A consisted of a single-ascending dose (SAD) escalation in healthy male volunteers. Six cohorts consisting of orally administered single ascending doses were conducted. At each dose level, 6 subjects were enrolled, randomized 2:4 to receive a single dose of placebo or the IL-10 delivery construct on day 1. The doses selected were 1 mg, 3 mg, 10 mg, 30 mg, 60 mg, and 120 mg.

[7] = Evaluation of chromatography modes (CEX, HIC): protein stability; format: physicochemical
Protocol: Several modes of chromatography were evaluated during process development.

[8] = Purification process trains with S-650F cation exchange: yield, recovery, purity, endotoxin
Protocol: Refolding was carried out at 4° C. in a refolding solution containing 1 mM reduced glutathione, 0.5 mM oxidized glutathione, 1M Arginine-HC, 250 mM sucrose, 100 mM Tris pH 8.5 at 4° C., and 2 mM EDTA. […] Buffer A for the CHT bind/elute step in Table 56 may also comprise 25 mM Tris, pH7.5, 300 mM NaCl, 5.0 mM NaPi, 0.5 mM CaCl2. Columns used are described in Table 58.
The yield, recovery, and purity of the IL-10 delivery construct was assess after each step, and after each process train.
It was surprising that a cation exchange resin was useful in the purification of the IL-10 delivery construct as cation exchange resins are negatively charged, and thus bind to proteins with a positive charge. Here, the IL-10 delivery construct has a calculated isoelectric point (pI) of 5.49, and thus is anticipated to have a negative charge under conditions traditionally used in a cation exchange chromatography.

[9] = test system: growth factors, chemokines and cytokines; format: in vivo, mice
STAT3 = experiment: pSTAT3 induction and hIL-10 in intestinal tissue 40 min after oral gavage, immunofluorescence and image analysis; format: in vivo, rat; details: 40 min post oral gavage
Protocol: This observation is consistent with findings in mice that intestinal epithelial cells can express IL-10 receptors at their apical surface under certain conditions associated with development and maintenance of barrier function. […] In order to quantify how test articles affected intestinal IL-10 signal transduction pathways, image analysis was performed: high-throughput image batches were collected, segmented by epithelial versus lamina propria localization, and then by cellular features.

[10] = Control: Capto Q ImpRes, CHT gradient B/E (Table 59)
[11] = Control: Capto Q, CHT (Linear elution), based on historical data (Table 60)
[12] = PT1: Capto Q, S-650F, CHT (FT mode) (Table 60)
[13] = PT2: Capto Q ImpRes, CHT step B/E 80 mM NaPi, S-650F (Table 59)
[14] = PT2: Capto Q, CHT (Step elution), S-650F (Table 60)
[15] = PT3: S-650F, Capto Q, CHT (FT mode) (Table 60)

B1: IL-10 delivery construct: recombinant homodimeric fusion protein: N-terminal methionine, cholix386 domain, polyGlySer spacer, recombinant human IL-10 (protein)
chain: MVEEALNIFDECRSPCSLTPEPGKPIQSKLSIPSDVVLDEGVLYYSMTINDEQNDIKDEDKGESIITIGEFATVRATRHYVNQDAPFGVIHLDITTENGTKTYSYNRKEGEFAINWLVPIGEDSPASIKISVDELDQQRNIIEVPKLYSIDLDNQTLEQWKTQGNVSFSVTRPEHNIAISWPSVSYKAAQKEGSRHKRWAHWHTGLALCWLVPMDAIYNYITQQNCTLGDNWFGGSYETVAGTPKVITVKQGIEQKPVEQRIHFSKGNAMSALAAHRVCGVPLETLARSRKPRDLTDDLSCAYQAQNIVSLFVATRILFSHLDSVFTLNLDEQEPEVAERLSDLRRINENNPGMVTQVLTVARQIYNDYVTHHPGLTPEQTSAGAQAGGGGSGGGGSGGGGSPGQGTQSENSCTHFPGNLPNMLRDLRDAFSRVKTFFQMKDQLDNLLLKESLLEDFKGYLGCQALSEMIQFYLEEVMPQAENQDPDIKAHVNSLGENLKTLRLRLRRCHRFLPCENKSKAVEQVKNAFNKLQEKGIYKAMSEFDIFINYIEAYMTMKIRN
modifications: homodimer
- suppression of induction of IL-4 (trend) (plasma cytokines): 62%
- suppression of induction of IL-6 (trend) (plasma cytokines): 61%
- suppression of induction of IL-12p70 (trend) (plasma cytokines): 65%
- suppression of induction of KC/GRO (trend) (plasma cytokines): 51%
- plasma expression of IL-10 and IL-2 relative to Vehicle (plasma cytokines; p<0.05): significantly reduced
- expression of anti-inflammatory markers [1]: increased expression of anti-inflammatory markers
- expression of pro-inflammatory markers [1]: decreased expression of pro-inflammatory markers
- expression of tissue repair and wound healing biomarkers [1]: increased expression of biomarkers associated with tissue repair and wound healing
- co-localization of pSTAT3 with CD3+ cells [2]: A moderate proportion of CD3+ cells
- co-localization of pSTAT3 with F4/80 macrophages [2]: extensive co-localization with pSTAT3
- increased serum levels of MCSF, IL12 p70, IL-3 ([3]; 8.45 mg/kg): Treatment-mediated suppression
- reduction of plasma IL-23 compared with Vehicle ([3]; 8.45 mg/kg prophylactic): 73%
- reduction of plasma IL-6 compared with Vehicle ([3]; 8.45 mg/kg prophylactic, Luminex): 33%
- onset of IL-1Ra induction ([4]; 10 mg/kg): 2.5-4 h post oral gavage
- hIL-10 in small intestinal lysates relative to colonic lysates ([4]; 10 mg/kg oral gavage): ~10 fold higher
- serum IL-1Ra levels ([4]; 10 mg/kg oral gavage, 4 h): significantly increased
- aggregation during freeze/thaw or at 1 week at 4 C [5]: did not show any significant increases in aggregation
- IL-1Ra induction at high doses ([6]; 60 and 120 mg): loss of immunomodulatory activity
- drug in blood ([6]; all doses (1-120 mg)): no drug was detected in the blood
- adverse events in 24 active subjects ([6]; all mild, self-limiting): 2
- IL-1Ra expression ([6]; single dose): able to induce IL-1Ra expression
- safety and tolerability ([6]; single oral doses 1-120 mg): safe and well tolerated
- behaviour at relatively low pH (cation exchange) [7]: precipitate at a pH below the pI of the target construct (pH 5.5)
- behaviour in high salt (hydrophobic interaction chromatography) [7]: unstable in the high salt
- Purity [8, 10]: 78.2
- Yield [8, 10]: 68 mg
- Endotoxin [8, 11]: *8 EU/mg
- Purity [8, 11]: *85%
- Endotoxin [8, 12]: 8.9 EU/mg
- Purity [8, 12]: 92%
- Purity [8, 13]: 78.5%
- Yield [8, 13]: 26 mg
- Endotoxin [8, 14]: 5 EU/mg
- Purity [8, 14]: 91%
- Endotoxin [8, 15]: 0.4 EU/mg
- Purity [8, 15]: 96%
- plasma TGF-β relative to Vehicle ([9]; 3.0 mg/kg): reduced
- production of IL-12 and IL-17 ([9]; 9.0 mg/kg): prevented
- plasma MCSF ([9]; highest dose (9 mg/kg)): reduced
- oxazolone-induced changes in LIX, LIF, IP10 ([9]; mouse, in vivo): mitigated
- plasma IL-3, IL-4 (9.0 mg/kg), IL-28 (3.0 and 9.0 mg/kg), IL-31 (0.3 mg/kg) ([9]; mouse, in vivo): to near-base line levels
- plasma MIP1α ([9]; mouse, in vivo): trend towards a reduction
- oxazolone-induced increase in plasma GCSF/CSF3 ([9]; prophylactic pre-treatment): attenuated
- plasma IL-13 and IL-15 ([9]; vs Vehicle): trend towards an IL-10 delivery construct-mediated decrease
- hIL-10 and pSTAT3 in intestinal tissue (STAT3): extensive amounts of hIL-10 and a large number of cells that were positive for pSTAT3 within the lamina propria
